Data: article PMC2064291

Target: vitronectin (urea-purified)
Test: solid-phase binding assay

soluble uPAR R58A (from UniProt Q03405 23-305) (domain or fragment)
fold reduction in binding: > 5 fold

soluble uPAR R91A (from UniProt Q03405 23-305) (domain or fragment)
fold reduction in binding: > 5 fold

soluble uPAR W32A (from UniProt Q03405 23-305) (domain or fragment)
fold reduction in binding: > 5 fold

soluble uPAR Y92A (from UniProt Q03405 23-305) (domain or fragment)
fold reduction in binding: > 5 fold

soluble uPAR I63A (from UniProt Q03405 23-305) (domain or fragment)
fold reduction in binding: > 5 fold
